According to publication PMC7090928:

Legend:
[1] = molecular target: mCherry-EB3 full length (UniProt Q9UPY8)
[2] = molecular target: mCherry-EB3 full length (UniProt Q9UPY8); remark: listed apart in the source
[3] = molecular target: dynamic microtubules (porcine brain tubulin) (porcine); test: speed of membrane tube spreading on microtubules compared with a one-step model; His-GFP-MTLS bound to GUV membrane, no EB3; the attachment rate was chosen by comparing model curves for 8, 16 and 26 s^-1 with experimental data
[4] = molecular target: mCherry-EB3 full length (UniProt Q9UPY8); test: single-molecule TIRF microscopy (dwell times and binding events on microtubules); 0.12 nM His-GFP-MTLS, 50 ms/frame, 200 nM mCherry-EB3 as tracer of plus ends; dwell times fitted with an exponential; MT tip taken as 200 nm long
[5] = molecular target: mCherry-EB3 full length (UniProt Q9UPY8); test: fluorescence correlation spectroscopy; 15 nM His-GFP-MTLS and 200 nM EB3 on dynamic MTs, no GUVs; peak intensity at passing MT tips against solution; 60 sites assumed in 6 dimer lengths, 1:1 EB3:MTLS assumed

UniProt Q9UPY8, sequence (Q9UPY8 whole entry): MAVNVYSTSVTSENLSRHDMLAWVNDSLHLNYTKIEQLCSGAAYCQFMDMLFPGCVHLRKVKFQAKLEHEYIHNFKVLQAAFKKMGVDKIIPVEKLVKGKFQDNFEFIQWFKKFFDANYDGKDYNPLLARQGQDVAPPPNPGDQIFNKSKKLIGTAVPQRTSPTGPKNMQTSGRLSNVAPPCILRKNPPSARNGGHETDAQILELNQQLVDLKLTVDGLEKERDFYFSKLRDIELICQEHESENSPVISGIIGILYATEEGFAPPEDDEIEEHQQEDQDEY
dynamic microtubules (porcine brain tubulin) (porcine), sequence (P68363 whole entry, chain 1 of 2): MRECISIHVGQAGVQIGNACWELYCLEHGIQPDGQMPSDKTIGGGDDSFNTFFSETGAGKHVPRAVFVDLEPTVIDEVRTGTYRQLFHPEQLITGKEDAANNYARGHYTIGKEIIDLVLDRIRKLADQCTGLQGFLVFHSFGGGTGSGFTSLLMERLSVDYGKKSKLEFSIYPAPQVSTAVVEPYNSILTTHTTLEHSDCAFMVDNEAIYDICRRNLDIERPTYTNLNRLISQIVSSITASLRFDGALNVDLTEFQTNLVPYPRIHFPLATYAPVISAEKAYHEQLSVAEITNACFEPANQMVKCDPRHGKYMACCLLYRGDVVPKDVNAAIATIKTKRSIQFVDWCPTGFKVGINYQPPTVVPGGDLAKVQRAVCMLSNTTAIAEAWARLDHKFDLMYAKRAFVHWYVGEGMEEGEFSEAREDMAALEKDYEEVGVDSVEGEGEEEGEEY
dynamic microtubules (porcine brain tubulin) (porcine), sequence (P02554 whole entry, chain 2 of 2, further chain): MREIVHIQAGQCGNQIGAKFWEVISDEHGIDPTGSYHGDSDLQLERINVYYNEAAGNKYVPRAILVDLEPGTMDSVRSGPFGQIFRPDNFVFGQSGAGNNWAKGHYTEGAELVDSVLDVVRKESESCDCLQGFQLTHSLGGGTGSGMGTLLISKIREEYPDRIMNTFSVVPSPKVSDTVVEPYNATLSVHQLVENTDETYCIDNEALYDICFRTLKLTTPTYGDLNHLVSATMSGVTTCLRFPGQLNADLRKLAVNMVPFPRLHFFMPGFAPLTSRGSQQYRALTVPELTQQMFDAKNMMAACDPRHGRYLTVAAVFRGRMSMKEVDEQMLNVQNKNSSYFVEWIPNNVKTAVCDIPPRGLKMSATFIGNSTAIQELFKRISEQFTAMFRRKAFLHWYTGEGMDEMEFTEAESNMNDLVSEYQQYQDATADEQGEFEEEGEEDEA

Substance	duration of the first positive displacement of Bio-mCherry-MTLS-coated beads at growing MT tips with 100 nM EB3 (most events shorter than 1 s without EB3) [1] [s]	tubulation of GUVs on dynamic MTs at 200 nM EB3 and 15 nM His-GFP-MTLS [2] [%]	k on-m (estimated attachment rate of membrane-bound His-GFP-MTLS to the MT lattice, no EB3) [3] [s⁻¹]	fold association rate at MT tips (with 200 nM mCherry-EB3) over the on-rate at the MT shaft [4] [fold]	maximum probability of being bound to the EB3-bound MT tip [5]
Bio-mCherry-MTLS (from UniProt Q03001 7528-7570)	15				
His-GFP-MTLS (from UniProt Q03001 7528-7570)		90	16	2.5	0.46
